In doi:10.1101/2025.11.17.688825 (bioRxiv, 2025):

Biological target: T1, 14-3-3ζ (residues 1-245, 14-3-3ζ-strep, chain of the 14-3-3ζ/ERα^(LBD_F) complex) (human, UniProt P63104 1-245)
T1 sequence: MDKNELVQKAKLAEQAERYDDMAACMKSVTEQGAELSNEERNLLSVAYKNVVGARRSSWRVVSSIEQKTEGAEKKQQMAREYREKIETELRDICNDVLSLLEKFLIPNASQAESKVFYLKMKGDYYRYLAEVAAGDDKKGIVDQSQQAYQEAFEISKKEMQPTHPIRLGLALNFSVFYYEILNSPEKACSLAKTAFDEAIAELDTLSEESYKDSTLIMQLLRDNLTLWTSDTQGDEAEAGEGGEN
Assay: mass photometry

- stoichiometry N: 1 ERα(LBD_F) per 14-3-3ζ (2:2)
B1: ERα^(LBD_F) (ERα residues 302-595, S305A, F591R, P592R, phosphorylated T594) (domain or fragment)
chain: KKNALALSLTADQMVSALLDAEPPILYSEYDPTRPFSEASMMGLLTNLADRELVHMINWAKRVPGFVDLTLHDQVHLLECAWLEILMIGLVWRSMEHPGKLLFAPNLLLDRNQGKCVEGMVEIFDMLLATSSRFRMMNLQGEEFVCLKSIILLNSGVYTFLSSTLKSLEEKDHIHRVLDKITDTLIHLMAKAGLTLQQQHQRLAQLLLILSHIRHMSNKGMEHLYSMKCKNVVPLYDLLLEMLDAHRLHAPTSRGGASVEETDQSHLATAGSTSSHSLQKYYITGEAEGRRATV
modifications: phosphorylated T594 (PKA co-expression)
